Results taken from patent publication US20080311122A1 (AstraZeneca / MedImmune, published 2008).

T1: HMG2 (UniProt P40673 2-209, limits assumed)
T1 construct: also called HMGB2; HMBG2
T1 sequence (looked up): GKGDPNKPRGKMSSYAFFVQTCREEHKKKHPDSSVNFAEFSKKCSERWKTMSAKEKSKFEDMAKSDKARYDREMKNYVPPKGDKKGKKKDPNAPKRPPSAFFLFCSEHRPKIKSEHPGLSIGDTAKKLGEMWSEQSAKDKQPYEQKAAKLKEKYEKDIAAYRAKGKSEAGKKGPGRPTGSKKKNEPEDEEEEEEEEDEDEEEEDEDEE

T2: recombinant HMG1 purified from E. coli as a calmodulin binding protein (CBP) fusion protein (human, UniProt A9RA84 1-215 (Papio anubis entry))
T2 sequence: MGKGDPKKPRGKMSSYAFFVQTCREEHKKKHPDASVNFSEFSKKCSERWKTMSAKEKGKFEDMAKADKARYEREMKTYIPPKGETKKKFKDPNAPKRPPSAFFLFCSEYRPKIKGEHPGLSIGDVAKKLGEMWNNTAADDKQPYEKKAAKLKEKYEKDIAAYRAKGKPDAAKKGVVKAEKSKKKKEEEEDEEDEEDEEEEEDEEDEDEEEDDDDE

T3: HMG1 purified from bovine (calf) thymus (bovine, UniProt P10103 2-215)
T3 construct: also called Calf thymus HMGB1; thymus HMG1
T3 sequence (looked up): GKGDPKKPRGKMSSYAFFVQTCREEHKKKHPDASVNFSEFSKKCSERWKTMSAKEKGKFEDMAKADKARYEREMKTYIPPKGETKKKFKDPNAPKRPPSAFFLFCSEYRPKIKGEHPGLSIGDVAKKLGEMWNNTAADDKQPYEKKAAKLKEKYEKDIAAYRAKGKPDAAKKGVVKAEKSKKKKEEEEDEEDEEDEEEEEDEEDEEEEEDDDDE

T4: HMG1 B Box peptide amino acids 150-183
T4 peptide: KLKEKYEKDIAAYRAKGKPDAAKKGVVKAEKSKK

T5: HMG1 B Box peptide amino acids 91-169
T5 construct: also called HMG1 peptide 91-169
T5 peptide: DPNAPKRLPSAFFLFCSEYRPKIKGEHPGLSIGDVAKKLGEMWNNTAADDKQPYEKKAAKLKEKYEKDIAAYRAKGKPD

B1: anti-HMG1 antibody G9 (antibody, V domains shown)
VH: EVQLLESGGGLVQPGGSLRLSCAASGFTFSSYDMFWVRQAPGKGLEWVSRISPSGGYTYYADSVKGRFTISRDNSKNTLYLQMNSLRAEDTAVYYCARLRYFDSRGYAFDIWGQGTMVTVSS
VL: DIQMTQSPGTLSLSPGERATLSCRASQSVRSSYLAWYQQKPGQAPRLLIYGASTRATGIPDRFSGSGSGTDFTLTISRLEPEDFAVYYCQQYGTSRWTFGQGTKVEIK
B2: anti-HMG1 antibody G12 (antibody, V domains shown)
VH: EVQLLESGGGLVQPGGSLRLSCAASGFTFSYYMMTWVRQAPGKGLEWVSSISPSGGYTIYADSAKGRFTISRDNSKNTLYLQMNSLRAEDTAVYYCARALSTGSFWDYWGQGTLVTVSS
VL: DIQMTQSPGTLSLSPGERATLSCRASESLTSTYVAWYQHKPGQAPRLLIHGGSTRATGIPVRFSGSGSGTDFTLTIATLEPEDFAVYYCQQYGSSPYTFGQGTKLEIK
B3: anti-HMG1 antibody G35 (antibody, V domains shown)
VH: EVQLLESGGGLVQPGGSLRLSCAASGFTFSWYKMVWVRQAPGKGLEWVSSIVPSGGITIYADSVKGRFTISRDNSKNTLYLQMNSLRAEDTAVYYCARVQQWLGRPYFDYWGQGTLVTVSS
VL: DIQMTQSPLSLPVTPGEPASISCRSSQSLLHGNGYNYLDWYLQRPGQSPQLLIYSGSNRASGVPDRFSGSGSGTDFTLKISRVEAEDVGVYYCMQSLQSRTFGQGTKVEIK
B4: anti-HMG1 antibody G34 (antibody, V domains shown)
VH: EVQLLESGGGLVQPGGSLRLSCAASGFTFSHYMMGWVRQAPGKGLEWVSRISPSGGGTVYADSVKGRFTISRDNSKNTLYLQMNSLRAEDTAVYYCARGGNWNYISYYYYYLDVWGKGTTVTVSS
VL: DIQMTQSPSSLSASVGDRVAITCRASQSIDTYLNWYQQKPGKAPKLLIYAASKLEDGVPSRFSGSGTGTDFTLTIRSLQPEDFASYFCQQSYSSPGITFGPGTKVEIK
B5: anti-HMG1 antibody G20 (antibody, V domains shown)
VH: EVQLLESGGGLVQPGGSLRLSCAASGFTFSWYDMFWVRQAPGKGLEWVSWISPSGGYTKYADSVKGRFTISRDNSKNTLYLQMNSLRAEDTAMYYCARSGLDYYDSSGYLDAFDIWGQGTMVTVSS
VL: DIQMTQSPSSVSASVGDRVTITCRASQDVSIWLAWYQQKPGKAPKLLIFGASRLQSGVPSRFSGSRSGADFTLTIDSVQPEDFASYYCQQADSFPLTFGGGTKVEIK

How the values were obtained:
HMG2 = target: T1, HMG2; assay: ELISA, wells coated with HMGB2 at 5 ug/mL, OD 490
Procedure: (§1) Binding to HMG1 vs. HMG2: Ultra high-binding ELISA plates (ThermoLab systems, #3855) were coated with either 5 ug/mL of Calf thymus HMGB1 or HMBG2 diluted in 10 mM Phosphate buffered saline (PBS), pH 7.2 and incubate overnight at 4 degrees. The plates were washed twice with Ca and Mg free PBS and 100 microliters of anti-HMGB1 antibody diluted in 10 mM PBS, pH 7.2+1% bovine serum albumin (BSA) to a final concentration of 10 ug/mL was added to each well and the plates were incubated 1 hour at room temperature. The wells were washed three times with 100 μl of PBS, pH 7.2. HRP labeled goat-anti-human IgG Kappa-chain (KPL, #14-10-10) and goat-anti-human IgG Lambda-chain (KPL, #14-10-11) were diluted in 10 mM PBS+1% BSA 1:1000 and 100 μl were added to each well and incubated for 1 hour at room temperature. The wells were then washed three times with 100 μl of PBS, pH 7.2. OPD substrate (Pierce chemical company, #34006) was prepared following the manufacturers instructions and 100 μl of prepared substrate was added to each well and the plates incubated at room temperature in the dark for 20-30 minutes. The reaction was stopped with the addition of 100 μl of 2M H₂SO₄, and the plates read on a plate reader at a wavelength of 490 nm.

[1] = target: T2, recombinant HMG1 purified from E. coli …; assay: cell-based or functional assay
[2] = target: T3, HMG1 purified from bovine (calf) thymus; assay: ELISA, wells coated with calf thymus HMGB1 at 5 ug/mL, antibody at 10 ug/mL, anti-human kappa/lambda-HRP, OD 490
Procedure: as §1

[3] = target: T2, recombinant HMG1 purified from E. coli …; assay: BIAcore, mAb immobilized, HMG1 injected, steady-state model
Procedure: HMG1 Binding Affinity via BIAcore Analysis: All experiments were performed on a BIAcore 3000 instrument (BIAcore, Inc., Piscataway, N.J.). Briefly, each mAb was immobilized to a CM5 sensor chip using a standard amino coupling chemistry. Separately a reference (control) flow cell was also prepared. Two-fold, serial dilutions of HMG1 in instrument buffer were sequentially injected at a slow flow rate over the individual mAb and reference flow-cell surfaces. Following the binding and dissociation of HMG1, the mAbs surfaces were regenerated with a brief pulse of 1M NaCl-50 mM NaOH. At the end of each experiment, the binding curves were evaluated using a steady-state model available through the BIA evaluation software supplied by BIAcore, Inc. (Piscataway, N.J.).

[4] = target: T4, HMG1 B Box peptide amino acids 150-183; assay: ELISA, wells coated with HMG1 B Box peptide 150-183 at 10 ug/ml
Procedure: (§2) The plate was then blocked with 4% milk powder dissolved in PBS at 37° C. for 1 hour. The blocking solution was removed and replaced with human anti-HMG1 antibodies at various concentrations (see FIGS. 5A-B). […] HRP activity was detected with Sureblue HRP substrate (KPL). Plates were read at 450 nm using a Kinetic Microplate Reader (Molecular Devices). […] After washing and blocking with 1% BSA in PBS, the biotinylated peptides were individually added into the avidin coated wells and incubated for 30 min at room temperature. The serial diluted antibody G4, S16 and S6 at the initial concentration at 10 μg/ml were then transferred into the wells followed by adding mouse anti human IgG-HRP conjugate (Pierce). Detection was accomplished by adding 50 μl of tetramethylbenzidine (TMB) substrate (KPL) and the absorbance was read at […].

[5] = target: T5, HMG1 B Box peptide amino acids 91-169; assay: ELISA, wells coated with HMG1 B Box peptide 91-169 at 10 ug/ml
Procedure: as §2

Binder	binding result (HMG2)	IC50, inhibition of rHMG1 stimulated IL-1β release from human PBMC [1]	IC50, inhibition of rHMG1 stimulated IL-6 release from human PBMC [1]	IC50, inhibition of rHMG1 stimulated TNF-α release from human PBMC [1]	binding result [2]	Kd [3]	binding result [4]	binding result [5]	IC50, inhibition of rHMG1 stimulated IL-12 release from human PBMC [1]	IC50, inhibition of HMG1 stimulated NO release from macrophages [1]
B1	no binding (tested: 10 ug/mL (not on the sheet))	0.211 µg/mL	0.246 nM	0.248 µg/mL	binds	125 nM	no binding (tested: 10 ug/ml (log 1.00))	no binding (tested: 10 ug/ml (log 1.00))	–	–
B2	no binding (tested: 10 ug/mL (not on the sheet))	5.91 µg/mL	1.12 nM	0.796 µg/mL	binds	73 nM	no binding (tested: 10 ug/ml (log 1.00))	no binding (tested: 10 ug/ml (log 1.00))	2.79 µg/mL	–
B3	no binding (tested: 10 ug/mL (not on the sheet))	–	0.564 nM	–	binds	242 nM	no binding (tested: 10 ug/ml (log 1.00))	–	–	–
B4	no binding (tested: 10 ug/mL (not on the sheet))	–	0.858 nM	–	binds	67 nM	no binding (tested: 10 ug/ml (log 1.00))	no binding (tested: 10 ug/ml (log 1.00))	–	–
B5	no binding (tested: 10 ug/mL (not on the sheet))	0.4 µg/mL	0.652 nM	0.598 µg/mL	binds	–	–	no binding (tested: 10 ug/ml (log 1.00))	–	20.4 µg/mL
